The values below come from patent US20110076682A1 (WISCONSIN ALUMNI RESEARCH FOUNDATION, published 2011).

For test [1], the target named is T1, VeA::TAP* (VeA tagged at its C terminus by TAP tag, veA::ctap*) (Aspergillus nidulans, UniProt C8VTV4 1-573).
T1 construct: 85 kDa on the immunoblot; also called tagged VeA; VeA::TAP* tag
T1 sequence: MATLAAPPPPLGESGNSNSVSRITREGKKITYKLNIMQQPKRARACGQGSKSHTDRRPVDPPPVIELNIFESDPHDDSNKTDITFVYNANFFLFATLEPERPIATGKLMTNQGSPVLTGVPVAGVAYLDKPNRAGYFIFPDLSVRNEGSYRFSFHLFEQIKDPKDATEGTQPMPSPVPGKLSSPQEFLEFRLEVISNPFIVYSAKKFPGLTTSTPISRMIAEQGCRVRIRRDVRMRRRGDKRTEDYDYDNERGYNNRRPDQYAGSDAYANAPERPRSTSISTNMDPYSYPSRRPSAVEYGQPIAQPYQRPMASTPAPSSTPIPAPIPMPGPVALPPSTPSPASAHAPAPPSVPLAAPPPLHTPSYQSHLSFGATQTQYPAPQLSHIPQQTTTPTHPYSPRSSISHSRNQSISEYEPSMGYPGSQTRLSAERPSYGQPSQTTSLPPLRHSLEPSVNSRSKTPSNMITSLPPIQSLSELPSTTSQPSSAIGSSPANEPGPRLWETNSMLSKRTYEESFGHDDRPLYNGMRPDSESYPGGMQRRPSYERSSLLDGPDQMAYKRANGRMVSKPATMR
Description: tandem affinity purification and mass spectrometry, dark.

Test [2] deals with T2, N-EYFP::VeA (Aspergillus nidulans, UniProt C8VTV4 1-573).
T2 construct: BiFC construct expressed in A. nidulans (pME3188, pME3189); also called enhanced yellow fluorescent protein fused to the N terminus of veA; not shown: N-terminal part of EYFP (n-eyfp)
T2 sequence: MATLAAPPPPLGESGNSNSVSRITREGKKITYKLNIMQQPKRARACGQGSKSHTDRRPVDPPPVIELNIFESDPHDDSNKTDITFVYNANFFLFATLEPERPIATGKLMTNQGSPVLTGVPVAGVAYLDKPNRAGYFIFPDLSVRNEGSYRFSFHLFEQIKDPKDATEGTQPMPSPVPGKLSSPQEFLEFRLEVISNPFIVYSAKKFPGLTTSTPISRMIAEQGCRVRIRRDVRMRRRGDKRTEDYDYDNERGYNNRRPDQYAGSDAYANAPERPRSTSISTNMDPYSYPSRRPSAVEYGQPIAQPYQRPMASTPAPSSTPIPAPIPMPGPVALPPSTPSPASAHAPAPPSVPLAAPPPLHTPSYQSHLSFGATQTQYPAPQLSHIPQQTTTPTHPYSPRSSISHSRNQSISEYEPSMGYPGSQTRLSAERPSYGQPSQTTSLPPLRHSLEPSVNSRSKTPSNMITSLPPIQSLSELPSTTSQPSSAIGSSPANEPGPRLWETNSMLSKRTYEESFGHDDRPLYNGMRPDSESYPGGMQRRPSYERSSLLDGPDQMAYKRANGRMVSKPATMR
Description: bimolecular fluorescence complementation in living A. nidulans cells.

The target of test [3] is T1, VeA::TAP* (VeA tagged at its C terminus …). The experiment in a line: tandem affinity purification of veA::ctap* and mass spectrometry, dark.
Test [4] has as its target T3, VeA yeast two-hybrid fusion (veA ORF in pTLexA or pGAD424) (Aspergillus nidulans, UniProt C8VTV4 1-573).
T3 construct: also called pNJ04; pNJ05
T3 sequence: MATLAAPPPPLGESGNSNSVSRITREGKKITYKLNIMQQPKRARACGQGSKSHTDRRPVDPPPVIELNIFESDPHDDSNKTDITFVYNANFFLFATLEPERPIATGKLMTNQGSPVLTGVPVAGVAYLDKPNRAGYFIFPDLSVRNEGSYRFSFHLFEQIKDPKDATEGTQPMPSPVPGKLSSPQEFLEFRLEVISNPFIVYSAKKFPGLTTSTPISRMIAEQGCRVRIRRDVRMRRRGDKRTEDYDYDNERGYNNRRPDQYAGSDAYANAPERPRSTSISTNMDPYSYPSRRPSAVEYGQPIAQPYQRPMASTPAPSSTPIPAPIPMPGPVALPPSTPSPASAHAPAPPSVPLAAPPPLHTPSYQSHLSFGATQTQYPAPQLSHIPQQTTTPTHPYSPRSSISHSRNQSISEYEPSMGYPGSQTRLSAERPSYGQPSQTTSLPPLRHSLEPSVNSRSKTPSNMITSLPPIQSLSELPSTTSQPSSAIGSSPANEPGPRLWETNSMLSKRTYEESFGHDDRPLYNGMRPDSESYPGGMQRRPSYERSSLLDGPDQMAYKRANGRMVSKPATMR
Description: yeast two-hybrid.

B1: regulator of sporogenesis VosA (other)
chain: MSAANYPDPSLPRPSTSDDFELIVRQNPNRARVAGGKEKERKPVDPPPIVQIRVREEGTYLAQHYLQSPYFFMSCSLYDAQEDAPASIPPSTALTGTLVSSLHRLKDVDNTDGGFFVWGDLSIKVEGDFRLKFSLFEMRKTDVVFLKSIVSERFTVSPPKSFPGMAESTFLSRSFADQGVKLRIRKEPRTLIKRTAPRPEEYPQAAIPRSPSDRTAMQIPGSSYPAPPYQPTSRDYSYYAPVKRQRTSVDYGARGMYDADGRMRQMETYPQTATLYGQPGGYPTPMMGYPSGHGGVPDYAMSYGLPPSAQVPQMQDPAAQSRSSQQATMQSLGMVNPPGTPTPDSARAMMQQAYPRPQYSASTAVLPPLQQSRNYPQGTNGATRGYYEQSPQATPILPSQPLGTSEAERYGVPPGHTGYDHTGSANGTPR
notes: Endogenous untagged protein co-purified from A. nidulans extracts
B1: the binding result in test [1] is recorded as “no binding”.

B2: C-EYFP::LaeA (other)
chain: MFEMGPVGTRLPAMTSPAHNHYSYHSPTSSDRGRSRQNSDAMDIQSITEREPATRYAVAGGPAPWNRNGSPSMSPMYSNNSERNQFHEENGRTYHGFRRGMYFLPCDEQEQDRLDIFHKLFTVARVSESLIYAPHPTNGRFLDLGCGTGIWAIEVANKYPDAFVAGVDLAPIQPPNHPKNCEFYAPFDFEAPWAMGEDSWDLIHLQMGCGSVMGWPNLYRRIFAHLRPGAWFEQVEIDFEPRCDDRSLDGTALRHWYDCLKQATAETMRPIAHSSRDTIKDLQDAGFTEIDHQIVGLPLNPWHQDEHERKVARWYNLAVSESIENLSLAPFSRVYRWPLERIQQLAADVKSEAFNKEIHAYNILHIYQARKPLR
notes: BiFC construct expressed in A. nidulans (pME3188, strain AGB307); not shown: C-terminal part of EYFP (c-eyfp)
In the case of B2, the binding result in test [2] is “binds”.

B3: LaeA (other)
chain: MFEMGPVGTRLPAMTSPAHNHYSYHSPTSSDRGRSRQNSDAMDIQSITEREPATRYAVAGGPAPWNRNGSPSMSPMYSNNSERNQFHEENGRTYHGFRRGMYFLPCDEQEQDRLDIFHKLFTVARVSESLIYAPHPTNGRFLDLGCGTGIWAIEVANKYPDAFVAGVDLAPIQPPNHPKNCEFYAPFDFEAPWAMGEDSWDLIHLQMGCGSVMGWPNLYRRIFAHLRPGAWFEQVEIDFEPRCDDRSLDGTALRHWYDCLKQATAETMRPIAHSSRDTIKDLQDAGFTEIDHQIVGLPLNPWHQDEHERKVARWYNLAVSESIENLSLAPFSRVYRWPLERIQQLAADVKSEAFNKEIHAYNILHIYQARKPLR
notes: Endogenous untagged protein co-purified from A. nidulans extracts; also called regulator LaeA
Turning to B3, the binding result in test [3] was “binds”.

B4: VelB yeast two-hybrid fusion (velB ORF in pTLexA or pGAD424) (other)
chain: MYAVEDRAHSGHHPPPLSMDRIPPPSTMYPSSAGPSAMVSPAGQPEPESLSTVHDGRIWSLQVVQQPIRARMCGFGDKDRRPITPPPCIRLIVKDAQTQKEVDINSLDSSFYVVMADLWNADGTHEVNLVKHSATSPSISTAMSSSYPPPPHPTSSDYPASYQTNPYGQPVGQPVGQPVGYAGVGNYYGGSTQLQYQNAYPNPQAQYYQPMYGGMAQPQMPAAQPVTPGPGGMFTRNLIGCLSASAYRLYDTEDKIGVWFVLQDLSVRTEGIFRLKFSFVNVGKSVSDLPQSDIAEVINKGTAPILASTFSEPFQVFSAKKFPGVIESTPLSKVFANQGIKIPIRKDGVKGQGSRGRHSDEDDGLDNEY
notes: also called pNJ20; pNJ23
With B4, the binding result in test [4] was “binds”.

B5: C-EYFP::VelB (other)
chain: MYAVEDRAHSGHHPPPLSMDRIPPPSTMYPSSAGPSAMVSPAGQPEPESLSTVHDGRIWSLQVVQQPIRARMCGFGDKDRRPITPPPCIRLIVKDAQTQKEVDINSLDSSFYVVMADLWNADGTHEVNLVKHSATSPSISTAMSSSYPPPPHPTSSDYPASYQTNPYGQPVGQPVGQPVGYAGVGNYYGGSTQLQYQNAYPNPQAQYYQPMYGGMAQPQMPAAQPVTPGPGGMFTRNLIGCLSASAYRLYDTEDKIGVWFVLQDLSVRTEGIFRLKFSFVNVGKSVSDLPQSDIAEVINKGTAPILASTFSEPFQVFSAKKFPGVIESTPLSKVFANQGIKIPIRKDGVKGQGSRGRHSDEDDGLDNEY
notes: BiFC construct expressed in A. nidulans (pME3189, strain AGB388); not shown: C-terminal part of EYFP (c-eyfp)
On to B5, for which, in test [2], the binding result is “binds”.
